Test results: article PMC4370339 (Journal of molecular biology, 2014)
Numbering of substitutions follows the chain as printed. Names may count otherwise.

T1: SecBA129C (A, otherwise wild-type) (Escherichia coli, UniProt P0AG86 1-155, A129C | C102L)
T1 sequence (looked up): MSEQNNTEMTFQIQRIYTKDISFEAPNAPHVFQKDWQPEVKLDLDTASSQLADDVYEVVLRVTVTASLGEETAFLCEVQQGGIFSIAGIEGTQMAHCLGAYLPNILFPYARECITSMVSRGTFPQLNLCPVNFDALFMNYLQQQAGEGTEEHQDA

T2: SecBQ12C E77K (B) (Escherichia coli, UniProt P0AG86 1-155, Q12C | E77K | C102L)
T2 sequence (looked up): T1 sequence (looked up) with Q12C, E77K, C129A

T3: SecBE77K parent carrying A129C (b) (Escherichia coli, UniProt P0AG86 1-155, E77K | A129C | C102L)
T3 sequence (looked up): T1 sequence (looked up) with E77K

B1: SecB wild-type (natural protein, Escherichia coli, UniProt P0AG86 1-155, looked up)
chain: T1 sequence (looked up) with L102C, C129A
B2: SecB wild-type parent carrying Q12C (A) (natural protein, Escherichia coli, UniProt P0AG86 1-155, looked up)
chain: T1 sequence (looked up) with Q12C, C129A
B3: SecB142 parent carrying A129C (c) (domain or fragment, Escherichia coli, UniProt P0AG86 1-142, looked up)
chain: MSEQNNTEMTFQIQRIYTKDISFEAPNAPHVFQKDWQPEVKLDLDTASSQLADDVYEVVLRVTVTASLGEETAFLCEVQQGGIFSIAGIEGTQMAHCLGAYLPNILFPYARECITSMVSRGTFPQLNLCPVNFDALFMNYLQ
B4: SecB142,E77K parent carrying A129C (d) (domain or fragment, Escherichia coli, UniProt P0AG86 1-142, looked up)
chain: B3 chain with E77K
B5: SecB142 parent carrying Q12C (C) (domain or fragment, Escherichia coli, UniProt P0AG86 1-142, looked up)
chain: B3 chain with Q12C, C129A
B6: SecB142,E77K parent carrying Q12C (D) (domain or fragment, Escherichia coli, UniProt P0AG86 1-142, looked up)
chain: B3 chain with Q12C, E77K, C129A
B7: SecBL75Q (natural protein, Escherichia coli)
chain: MSEQNNTEMTFQIQRIYTKDISFEAPNAPHVFQKDWQPEVKLDLDTASSQLADDVYEVVLRVTVTASLGEETAFQCEVQQGGIFSIAGIEGTQMAHCLGAYCPNILFPYARECITSMVSRGTFPQLNLAPVNFDALFMNYLQQQAGEGTEEHQ

How the values were obtained:
SecB (Escherichia coli) = SecB (Escherichia coli) (UniProt P0AG86); assay: ITC; settings: cited from earlier work
AUC = target: the molecule itself; assay: AUC
SecA [1] = target: T4, SecA (Escherichia coli, UniProt P10408 1-901); assay: SEC
T4 sequence (P10408 whole entry): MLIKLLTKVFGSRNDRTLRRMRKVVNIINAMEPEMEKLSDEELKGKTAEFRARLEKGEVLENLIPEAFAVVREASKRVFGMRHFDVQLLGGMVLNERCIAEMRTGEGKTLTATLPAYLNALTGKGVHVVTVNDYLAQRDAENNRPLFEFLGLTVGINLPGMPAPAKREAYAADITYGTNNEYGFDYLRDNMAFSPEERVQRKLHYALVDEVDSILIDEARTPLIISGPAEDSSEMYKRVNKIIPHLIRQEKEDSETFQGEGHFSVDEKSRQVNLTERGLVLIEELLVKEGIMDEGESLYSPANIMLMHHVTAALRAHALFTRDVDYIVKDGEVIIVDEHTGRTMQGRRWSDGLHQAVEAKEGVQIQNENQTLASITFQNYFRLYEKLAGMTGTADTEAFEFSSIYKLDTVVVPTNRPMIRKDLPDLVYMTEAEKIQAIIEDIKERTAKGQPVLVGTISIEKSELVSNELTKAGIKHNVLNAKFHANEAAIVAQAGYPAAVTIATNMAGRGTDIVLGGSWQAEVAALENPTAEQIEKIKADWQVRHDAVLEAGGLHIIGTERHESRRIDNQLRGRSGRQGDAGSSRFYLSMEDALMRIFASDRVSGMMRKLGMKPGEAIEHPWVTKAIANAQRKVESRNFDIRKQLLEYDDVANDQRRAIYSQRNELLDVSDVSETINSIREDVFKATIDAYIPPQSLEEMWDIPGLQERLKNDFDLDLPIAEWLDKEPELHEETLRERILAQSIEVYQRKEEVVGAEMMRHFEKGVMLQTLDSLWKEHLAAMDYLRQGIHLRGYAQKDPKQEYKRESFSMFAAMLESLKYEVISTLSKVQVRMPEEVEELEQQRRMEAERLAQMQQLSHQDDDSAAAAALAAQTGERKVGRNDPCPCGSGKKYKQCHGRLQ

[2] = target: T1, SecBA129C (A, otherwise wild-type); assay: cross-linking
SecBQ12C E77K (B) = target: T2, SecBQ12C E77K (B); assay: cross-linking
[3] = target: B2; assay: cross-linking
[4] = target: T3, SecBE77K parent carrying A129C (b); assay: cross-linking
[5] = target: B4; assay: cross-linking
[6] = target: B3; assay: cross-linking
SecA [7] = target: T4, SecA; assay: SEC-MALS

Molecule: SecA 2-11 (from UniProt P10408)
- Kd (SecB (Escherichia coli)): 30 µM

Molecule: B1
- binding result (AUC): binds
- relative affinity (ratio of Kds) against radiolabeled SecB (SecA [1]): 0.82 unitless

Molecule: B2
- binding result [2]: binds

Molecule: B3
- binding result (SecBQ12C E77K (B)): binds

Molecule: B4
- binding result [3]: binds

Molecule: B5
- binding result [2]: binds
- binding result [4]: binds
- binding result [5]: binds

Molecule: B6
- binding result [2]: binds
- binding result [4]: binds
- binding result [6]: binds

Molecule: B7
- stoichiometry N (SecA [7]): 1 SecA protomers per SecB tetramer
